Patent US11254722B2, “Recombinant proteins and uses thereof” (ACADEMIA SINICA, priority 2017, dated 2022)
Like-named read-outs stand apart in the source and are kept apart here. One block for each molecule: values may come before it.

Assays:
hep3B cells [1] = test: hep3B proliferation assay; format: cell-based, human; details: for EC50: FIG. 11C, read-out: ECK for FBS-induced proliferation; for IC50: Table 10
Method: (§1) For the proliferation assay, cells except for HUVEC were seeded at a density of 1,000 to 6,000 in 96 wells in an assay buffer of DMEM/F12 plus 0.2% BSA and 10 ug/ml transferrin. Chemical inhibitors were added after 16-20 hours after plating; IGF-1 or other growth factors or test chimeras in assay buffer were added at the time of plating or 16-20 hours after plating. 5,000 HUVEC ells were plated in poly-L-lysine coated 96 wells in M199 with 1%/FBS and HEPES. After 3 to 4 days of culture, growth was determined by incubating cells with Alamar blue for 4 to 6 hours and then the fluorescence (RFU) at 544/590 nm was read. For long term proliferation assays, cells were plated in the growth media with 5% or 10% FBS at densities of 500 to 10,000 cells per cm^2 growth area and grown for 7 to 21 days. Inhibitors and effectors were added 1-4 days after plating. Cells were exposed to cisplatin or gemcitabine for two days. Medium was renewed twice weekly. At completion, cells were fixed and then stained with Giemsa.
The human hepatoma cell line hep3B could be stimulated by many growth factors including IGF-1, IGF-2, HGF, bFGF, VEGF, and neuregulin.

IGF-1 = target: T1, IGF-1 (Homo sapiens, UniProt P05019); test: Biacore binding to IGF-1; details: experiment 4-79
T1 construct: purchased R&D Sciences or SinoBiologicals
Method: Biacore binding was performed at David Myszka's laboratory at the University of Utah or at the Genomic Research Center at Academia Sinica. Surfaces of binding protein chimera were made via chemical immobilization on a CM4 chip using standard amine coupling chemistry. […] Excess surface carboxyl activated sites on all four flow cells was blocked using the doubly positively charged species ethylenediamine. Binding experiments (but not immobilizations) in HBS-P (10 mM HEPES pH 7.4, 150 mM NaCl, 0.05% P20), The HBS-P was supplemented with BSA at 0.2 mg/mL, or HBS-P was supplemented with 500 mM NaCl (650 mM NaCl, final concentration). Analytes were also reconstituted in the corresponding buffer. All experiments were performed at 25° C. 1/150 dilutions of phosphoric acid were used to regenerate IGFBP3-Fc surfaces and a sequence of 3 M MgCl2 followed by 5 M GuCl was used to regenerate surfaces immobilized with growth factor. Dissociation constants reported below used immobilized binding protein unless noted. Differences between binding constants may be expected between growth factor immobilization and chimera immobilization.

[2] = estimated; reference 26; cited from earlier work
PC-9 tumors = test: PC-9 subcutaneous tumors in mice, low dose erlotinib; format: in vivo; details: erlotinib 25 mg/kg 3 times per week; FIG. 27
Method: (§2) 5×10exp6 PC-9 non-small cell lung cancer cells were injected subcutaneously in Nod scid gamma (NSG) mice. […] Erlotinib in 6% captisol was dosed orally daily at 25 mg/kg; IGFBP3Fc (3(del3)3) was dosed intraperitoneally at 25 mg/kg three times per week; control animals were administered vehicle. Dosing was started on day 11; erlotinib and erlotinib plus D3 was discontinued on day 19; D3 injections were discontinued on day 22.
Subcutaneous PC-9 tumors were generated and measured as above. Chimera D3 was dosed as above; erlotinib was dosed at 25 mg/kg 3 times per week in order to examine the effect of the chimera D3 on the tumor growth with suboptimal erlotinib dosing. The treatment started on day 8 and ended on day 22.

HT29 cells = test: HT29 proliferation assay; format: cell-based, human
Method: (§3) MCF-7 cells (a breast cancer cell line) were maintained in MEM (GIBCO) plus insulin and NEAA and 10% FBS (Hyclone).
as §1
The combination of drug (erlotinib and vemurafenib in hep3b and HT29 cells, respectively) and chimera can be synergistic; so, in addition to enhancing the inhibition, the chimera addition may also lower drug concentration requirements and reduce side effects.

[3] = test system: PC-9 non-small cell lung cancer cells; test: PC-9 subcutaneous tumors in NSG mice, daily erlotinib; format: in vivo; details: chimera D3 plus erlotinib
Method: as §2

[4] = test system: H1975-T790M gefitinib-resistant; test: H1975 survival and growth with TKI; format: cell-based, human; details: FIG. 21
Method: as §3, §1
(§4) The addition of chimera D3 to gefitinib reduced this number by about 100-fold.

HUH7 = HUH7 survival and growth with TKI; format: cell-based, human; details: FIG. 21
Method: as §3, §1, §4

PC-9 cells = test: PC-9 proliferation and clonal density assays; format: cell-based, human
Method: as §3, §1
Proliferation assays at clonal densities allows measurement of these DTPs. PC-9 cells are a human non-small cell lung cancer line with a EGFR deletion with high sensitivity to EGFR TKI's (24).

[5] = test system: A549 lung carcinoma cells; test: A549 proliferation assay; format: cell-based
Method: as §3, §1
Since the A549 cell line contains a KRAS mutation, it is expected that A549 cells be resistant to TKIs such as AZD9291 and erlotinib. MEK inhibitors such as trametinib were designed to target the RAS/MEK/ERK pathway. […]

Hep3B cells [6] = test: Hep3B subcutaneous tumors in NOD-Scid mice; format: in vivo
Method: Hep3B cells were infected with GFP-luciferase lentivirus. The cells with highest GFP expression were selected by FACS sort, and the resulting population was expanded. Two million hep3B cells mixed with Matrigel were injected subcutaneously in NOD-Scid mice, and measurable signal was obtained after 7 days. Treatment began at 8 days after injection (day 0). Luciferase was measured as per the standard Xenogen protocol. IGFBP3.Fc D3 (i.e., the 3(del3)3 chimera) at 20 mg/kg was injected twice weekly; saline was injected in the control group. Tumor growth was measured twice weekly by measuring the luminescence. […]

A431 = A431 survival and growth with TKI; format: cell-based, human; details: FIG. 21
Method: as §3, §1, §4

PC-91R = PC-91R gefitinib-resistant cell proliferation; format: cell-based; details: FIG. 24A, FIG. 24B
Method: as §1
One mechanism of EGFR TKI resistance is the transition from an epithelial to mesenchymal phenotype (16). […] Consequently, a combination of chimera D3 and TKI may limit the resistance caused by epithelial to mesenchymal transition.

[7] = number of tumors, increase in the tumor size
[8] = number of tumors, no measurable tumor
[9] = number of tumors, partial regression means a 20% or greater decrease in the tumor size

T1 sequence (P05019 49-118 limits assumed): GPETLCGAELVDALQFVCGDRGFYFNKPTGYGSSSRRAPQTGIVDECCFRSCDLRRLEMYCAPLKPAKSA

EC50 (hep3B cells [1]; hep3B): 0.2 µM
Kd (IGF-1): 0.000363 µM
Molecule: IGFBP3: insulin-like growth factor-binding protein-3, wild-type (SEQ ID NO: 1) [reference compound]
serum half-life [2]: 25 min

IC50 (hep3B cells [1]; read-out: IC50, FBS-stimulated proliferation of hep3B cells): 0.105 µM
IC50 (hep3B cells [1]; read-out: IC50, HGF-stimulated proliferation of hep3B cells): 0.047 µM
IC50 (hep3B cells [1]; read-out: IC50, IGF1-stimulated proliferation of hep3B cells): 0.028 µM
IC50 (hep3B cells [1]; read-out: IC50, bFGF-stimulated proliferation of hep3B cells): 0.069 µM
IC50 (hep3B cells [1]; read-out: IC50, nrg-stimulated proliferation of hep3B cells): 0.078 µM
EC50 (hep3B cells [1]; hep3B): 0.085 µM
decrease of the IC50 of gefitinib (PC-9 cells; 200 nM D3Fc, PC-9, four-day assay, FIG. 19A): 70 fold
B1: chimera D3: IGFBP3 with IGFBP3 linker deletion 3-Fc, SEQ ID NO: 12 (protein)
chain: MSEVPVARVWLVLLLLTVQVGVTAGGASSAGLGPVVRCEPCDARALAQCAPPPAVCAELVREPGCGCCLTCALSEGQPCGIYTERCGSGLRCQPSPDEARPLQALLDGRGLCVNASAVSRPAPPAPGNASESEEDRSAGSVESPSVSSTHRVSDPKFHPKGHAKVDYESQSTDTQNFSSESKRETEYGPCRREMEDTLNHLKFLNVLSPRGVHIPNCDKKGFYKKKQCRPSKGRKRGFCWCVDKYGQPLPGYTTKGKEDVHCYSMQSKVECPPCPAPPVAGPSVFLFPPKPKDQLMISRTPEVTCVVVDVSHEDPEVKFNWYVDGVEVHNAKTKPREEQYNSTYRVVSVLTVLHQDWLNGKEYKCKVSNKGLPSSIEKTISKAKGQPREPQVYTLPPSREEMTKNQVSLTCLVKGFYPSDIAVEWESNGQPENNYKTTPPVLDSDGSFFLYSKLTVDKSRWQQGNVFSCSVMHEGLHNHYTQKSLSLSPGK
hep3B proliferation on co-treatment with doxorubicin (hep3B cells [1]; 0.01 uM doxorubicin plus chimera D3): reduced proliferation even further
hep3B proliferation on co-treatment with erlotinib, sorafenib or afatinib (hep3B cells [1]; 2 uM erlotinib, 2 uM sorafenib, or 0.15 uM afatinib, FIG. 16B): further reduced cell proliferation
proliferation of hep3B cells treated with chimera alone vs no inhibitor (hep3B cells [1]; FIG. 16B): reduced significantly
bFGF, IGF1, bFGF/IGF1, HGF and HGF/IGF rescue of erlotinib-treated hep3b cells (hep3B cells [1]; clonal proliferation assay, FIG. 22B): inhibited
inhibition of hep3B cells treated with erlotinib (hep3B cells [1]; combination with erlotinib, FIG. 15, FIG. 16A): synergistically inhibited
cancer cell survival and growth on addition to TKI (hep3B cells [1]; hep3B, FIG. 21): further inhibited
tumor inhibition on addition of chimera D3 to erlotinib (PC-9 tumors): clearly improved the tumor inhibition
inhibition with vemurafenib in HT29 cells (HT29 cells; FIG. 17A isobologram, FIG. 17B): synergistic inhibition
cancer cell survival and growth on addition to TKI (HT29 cells; HT29, FIG. 21): further inhibited
tumor growth after erlotinib treatment was stopped on day 19, compared to the erlotinib group ([3]; FIG. 26): delayed tumor growth
tumor volume of treated to control (T/C) ([3]; day 20): 32%
cancer cell survival and growth on addition to TKI [4]: further inhibited
cancer cell survival and growth on addition to TKI (HUH7): further inhibited
bFGF and HGF rescue of osimertinib-treated PC-9 cells (PC-9 cells; FIG. 23): inhibited such rescue
clonal density assay with gefitinib (PC-9 cells; PC-9, FIG. 19B): decreased the IC50 and reduced surviving cells
IGF1-induced cell survival under gefitinib (PC-9 cells; PC-9, FIG. 20): dramatically reduced
cell growth with bFGF under gefitinib (PC-9 cells; PC-9, FIG. 20): substantially reduced cell growth
cancer cell survival and growth on addition to TKI (PC-9 cells; PC-9, FIG. 21): further inhibited
reduction of the number of PC-9 cells surviving gefitinib (PC-9 cells; addition of chimera D3 to gefitinib): about 100 fold
A549 growth on addition to cisplatin ([5]; FIG. 18B): further inhibited
growth of A549 lung carcinoma cells ([5]; alone, or in combination with the TK (AZD9291, trametinib), FIG. 18A): reduced the growth
hep3B tumor growth compared with control mice (Hep3B cells [6]; 20 mg/kg twice weekly, luminescence, FIG. 25): grew more slowly
T/C (tumor volume treated/control) ratio (Hep3B cells [6]; D3 alone, day 25): 63%
tumor growth inhibition (Hep3B cells [6]; D3 alone, day 25, p value of 0.0025): 37%
Progression, Day 12 (Hep3B cells [6]; [7]): 5
Progression, Day 22 (Hep3B cells [6]; [7]): 4
Complete regression, Day 12 (Hep3B cells [6]; [8]): 2
Complete regression, Day 22 (Hep3B cells [6]; [8]): 3
Partial regression, Day 12 (Hep3B cells [6]; [9]): 1
Partial regression, Day 22 (Hep3B cells [6]; [9]): 1
cancer cell survival and growth on addition to TKI (A431): further inhibited
sensitivity of gefitinib-resistant PC-91R cells to gefitinib (PC-91R): restored the cancer cells' sensitivity to gefitinib
